These results are taken from article PMC3153463.

This assay concerns the target H103C mutant of RAV-1 IN CCD (RAV-1 IN CCD_(H103C)), residues 53-199 (Rous-associated virus type 1 (RAV-1)). Briefly: cross-linking; engineered Cys103-Cys103 disulfide bond; denaturing SDS-PAGE in non-reducing conditions; mass spectrometry (MALDI-TOF) of tryptic peptides.

The stoichiometry N is the number of molecules, sites or subunits per partner or assembly. Turning to “H103C mutant of RAV-1 IN CCD (RAV-1 IN CCD_(H103C)), residues 53-199 (domain or fragment)”, the stoichiometry N was 2.
